PMC5015425, “Structural insights into Parkin substrate lysine targeting from minimal Miro substrates” (Scientific Reports, 2016)

Target: the molecule itself
Assay: SEC-MALS; S200 10/300 GL column, 25 mM HEPES pH 7.4, 200 mM NaCl, 0.5 mM TCEP, 1 mM MgCl2, 0.5 mL/min, 10 °C; injected: hMiro1-C 16 mg/mL, hMiro2-C 7 mg/mL, hMiro1-CM 18 mg/mL

B1: human Miro1 cGTPase domain, aa 411-592 (hMiro1-C) (domain or fragment, UniProt Q8IXI2 411-592, looked up)
chain: KKQTQRNVFRCNVIGVKNCGKSGVLQALLGRNLMRQKKIREDHKSYYAINTVYVYGQEKYLLLHDISESEFLTEAEIICDVVCLVYDVSNPKSFEYCARIFKQHFMDSRIPCLIVAAKSDLHEVKQEYSISPTDFCRKHKMPPPQAFTCNTADAPSKDIFVKLTTMAMYPHVTQADLKSSTF
notes: human Miro1 (RhoT1), C-terminal GTPase (cGTPase) domain, residues 411-592; Dimer in the crystal and in solution; Details of expression are in the Supplementary Methods; also called hMiro1-CD; hMiro1 cGTPase; source: bacteria, purified (TALON beads, HiTrap S cation exchange, Superdex 200 when necessary)
- stoichiometry N: 2
